Assay results from paper PMC4356366, “Structures of the human Pals1 PDZ domain with and without ligand suggest gated access of Crb to the PDZ peptide-binding groove” (Acta Crystallographica Section D: Biological Crystallography, 2015).
Numbering of substitutions follows the chain as printed. Names may count otherwise. “And” between values parts separate entries of the source, which are not always exact repeats. Identical values can stand only once. “Also recorded” adds a separate entry of the source. Ends that are not written are not given here.

T1: human Pals1 PDZ domain (Pals1^PDZ; residues 251–335) (Homo sapiens, UniProt Q8N3R9)
T1 construct: the PDZ domain of human Pals1 (Pals1^PDZ; residues 251–335); GST (N, cleaved yes); made in house; host or cells: Escherichia coli FB810
T1 sequence (Q8N3R9 251-335): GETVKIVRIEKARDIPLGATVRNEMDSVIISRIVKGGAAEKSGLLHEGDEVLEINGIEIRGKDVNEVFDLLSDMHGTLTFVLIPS

T2: human Pals1 PDZ domain (Pals1^PDZ; residues 251-335), wild type (human, UniProt Q8N3R9 251-335)
T2 chain: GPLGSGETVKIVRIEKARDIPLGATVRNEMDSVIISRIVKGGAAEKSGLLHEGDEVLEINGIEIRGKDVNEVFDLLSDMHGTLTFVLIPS

T3: human Pals1 PDZ domain (Pals1^PDZ; residues 251-335), wild type (human, UniProt Q8N3R9 251-335)
T3 construct: vector-derived residues Gly-Pro-Leu-Gly-Ser at the amino-terminus of Pals1^PDZ, left after removal of GST; Pals1 (MPP5), human, PDZ domain, residues 251-335; also called MPP5; protein associated with Lin-7; source: E. coli FB810, purified (glutathione Sepharose 4B, GST removed with GST-3C protease, Superdex S75)
T3 sequence: T2 chain

T4: human Pals1 PDZ domain F318A mutant (human, UniProt Q8N3R9 251-335, F318A)
T4 sequence: T2 chain with F73A

T5: human Pals1 PDZ domain F318C mutant (human, UniProt Q8N3R9 251-335, F318C)
T5 construct: Pals1 (MPP5), human, PDZ domain, residues 251-335, F318C; The methods name only the wild type and F318A; also called Pals1^PDZ F318C
T5 sequence (looked up): T1 sequence (Q8N3R9 251-335) with F68C

B1: fluorescein-labelled human Crb1 peptide, residues 1390-1406 (Crb^17) (peptide)
peptide: RVEMWNLMPPPAMERLI
modifications: also: fluorescein label, position not given here
notes: also called fluorescein-labelled Crb^17; Crumbs peptide (homologue 1)
B2: human Pals1 PDZ domain F318A mutant (domain or fragment)
chain: T2 chain with F73A
notes: vector-derived residues Gly-Pro-Leu-Gly-Ser at the amino-terminus of Pals1^PDZ, left after removal of GST (told for the wild type, same preparation); Pals1 (MPP5), human, PDZ domain, residues 251-335, F318A; also called Pals1^PDZ F318A; source: E. coli FB810, purified (glutathione Sepharose 4B, GST removed with GST-3C protease, Superdex S75)
B3: human Pals1 PDZ domain (Pals1^PDZ; residues 251-335), wild type (domain or fragment)
chain: T2 chain

Experiments:
[1] = target: T1, human Pals1 PDZ domain (Pals1^PDZ; residues 251–335); test: Fluorescence polarization binding assay, fluorescein-labelled Crb peptides with Pals1^PDZ; conditions: Fp, fluorescein-labelled peptide 50 nM, protein 0 to 300 µM, 20 mM HEPES pH 7.5, 100 mM NaCl, 1 mM DTT, read after 5 min; measured in parallel from the same Pals1 preparation; representative of three independent experiments
Experimental: Fluorescence polarization (Fp) assays were performed to determine the K d for each peptide following a previously described protocol (Guettler et al., 2008[▶]). Binding assays were performed in 20 mM HEPES pH 7.5, 100 mM NaCl, 1 mM DTT. The reaction mixtures contained a fixed concentration of fluorescein-labelled peptide (50 nM) and a protein concentration ranging from 0 to 300 µM depending on the dissociation constant. The 20 µl reactions were carried out in a 384-well plate and measured after 5 min using a Tecan Safire2 plate reader with excitation at 470 nm and emission at 525 nm. The anisotropy values were normalized and the K d values were determined using nonlinear regression with the graphics program Prism (Heyduk & Lee, 1990[▶]).
To characterize the interaction between the PDZ domain of human Pals1 (Pals1^PDZ; residues 251–335) and the intracellular segment of human Crb1 in vitro, we used fluorescence polarization (Fp) assays with a fluorescein-labelled peptide containing 17 carboxy-terminal residues 1390–1406 (defined hereafter as Crb^17). […] The Pals1^PDZ–Crb^17 interaction was stable to size-exclusion chromatography as detected from the Crb^17 intrinsic tryptophan fluorescence (data not shown). […]

[2] = target: T2, human Pals1 PDZ domain (Pals1^PDZ; …); test: FP
[3] = target: T3, human Pals1 PDZ domain (Pals1^PDZ; …); test: fluorescence polarisation; fixed fluorescein-labelled peptide (50 nM), Pals1 PDZ protein titrated 0 to 300 µM; 20 mM HEPES pH 7.5, 100 mM NaCl, 1 mM DTT; 20 µl in 384-well plate, read after 5 min; conditions: both partners purified
[4] = target: T4, human Pals1 PDZ domain F318A mutant; test: FP
[5] = target: T5, human Pals1 PDZ domain F318C mutant; test: fluorescence polarisation; fixed fluorescein-labelled peptide (50 nM), Pals1 PDZ protein titrated 0 to 300 µM; 20 mM HEPES pH 7.5, 100 mM NaCl, 1 mM DTT; 20 µl in 384-well plate, read after 5 min; conditions: both partners purified
[6] = target: B1; test: as above; conditions: both partners purified
[7] = target: Individual Crb^17 substitutions E1403A, R1404A and L1405A; test: as above

## Crb^17 I1406A: Crb^17 peptide with carboxy-terminal Ile1406 replaced by alanine, fluorescein-labelled (RVEMWNLMPPPAMERLA; also: fluorescein label, position not given here)
[1]
  dissociation constant (Kd) for Pals1^PDZ: completely abolished detectable binding; also recorded: Not detectable

## RVEMWNLMPPPAAERLI (also: fluorescein label, position not given here) [fluorescein-labelled Crb^17 M1402A]
[2]
  Kd: 8.1 µM
[3]
  binding result: binds

## AMERLI (also: fluorescein label, position not given here) [fluorescein-labelled shorter Crb1 peptide spanning residues 1401-1406 (Crb^6)]
[2]
  Kd: 16.8 µM
[3]
  binding result: binds

## RVEMWNLMPPPAMERAI (also: fluorescein label, position not given here) [fluorescein-labelled Crb^17 L1405A]
[2]
  Kd: 55.3 µM
[3]
  binding result: binds

## B1
[4]
  Kd: 1.8 µM
[3]
  Kd: 9.2 µM and 12.4 µM
[5]
  Kd: 5 µM

## B2
[6]
  fold tighter binding than wild-type Pals1^PDZ: 5 fold

## RVEMWNLMPPPAMARLI (also: fluorescein label, position not given here) [fluorescein-labelled Crb^17 E1403A]
[2]
  Kd: 53.1 µM
[3]
  binding result: binds

## B3
[7]
  Kd: 52 to 55 µM

## RVEMWNLMPPPAMEALI (also: fluorescein label, position not given here) [fluorescein-labelled Crb^17 R1404A]
[2]
  Kd: 51.5 µM
[3]
  binding result: binds
